Source: patent US7977313B2, “Methods and compositions for promoting localization of pharmaceutically active agents to bone” (Affinergy, Inc., priority 2007, dated 2011)
Where two headings read alike, the source gives them in different places. Where a SMILES comes first, the peptide text is derived from it. The star is where a group is joined. Biotin = O=C1N[C@H]2[C@H](CS[C@H]2CCCCC(=O)*)N1

Legend:
[1] = system: stem cells; details: cited from earlier work
[2] = biological target: T1, BMP14 (Homo sapiens, UniProt P43026); assay: ELISA-format binding to BMP family members; details: ELISA-format assay
T1 sequence (P43026 382-501): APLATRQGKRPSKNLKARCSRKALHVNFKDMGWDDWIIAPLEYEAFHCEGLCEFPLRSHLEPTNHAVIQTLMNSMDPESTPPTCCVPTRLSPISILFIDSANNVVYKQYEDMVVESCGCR
Description: (§1) Exemplary peptides were tested for their ability to bind with specificity to members of the BMP family in an ELISA-format assay. […] For example, BMP2-mediates transdifferentiation of C2C12 myoblasts into osteoblasts; and when treated with BMP-2, the alkaline phosphatase activity in C2C12 myoblasts was induced.

[3] = biological target: T2, BMP2 (Homo sapiens, UniProt P12643); assay: ELISA-format binding to BMP family members; details: ELISA-format assay
T2 sequence (P12643 283-396): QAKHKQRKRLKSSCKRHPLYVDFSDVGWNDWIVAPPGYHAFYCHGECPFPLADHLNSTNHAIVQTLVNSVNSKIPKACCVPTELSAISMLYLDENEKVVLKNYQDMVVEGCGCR
Description: as §1

[4] = biological target: T3, BMP4 (Homo sapiens, UniProt P12644); assay: ELISA-format binding to BMP family members; details: ELISA-format assay
T3 sequence (P12644 293-408): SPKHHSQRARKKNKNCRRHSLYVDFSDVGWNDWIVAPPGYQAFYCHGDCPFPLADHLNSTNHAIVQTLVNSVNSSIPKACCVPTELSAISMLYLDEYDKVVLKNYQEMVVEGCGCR
Description: as §1

[5] = biological target: T4, BMP7 (Homo sapiens, UniProt P18075); assay: ELISA-format binding to BMP family members; details: ELISA-format assay
T4 sequence (P18075 293-431): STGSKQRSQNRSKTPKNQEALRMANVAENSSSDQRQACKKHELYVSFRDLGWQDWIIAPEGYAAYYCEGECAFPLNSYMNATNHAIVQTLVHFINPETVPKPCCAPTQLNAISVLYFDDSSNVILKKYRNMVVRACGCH
Description: as §1

[6] = biological target: demineralized bone matrix (DBM); assay: Biotinylated peptide binding to demineralized bone matrix (ELISA-type, streptavidin-alkaline phosphatase/pNPP); design: species or system human
Description: Relative binding strengths of the peptides to bone, also used as a measure of binding specificity, were determined by testing serial dilutions of the peptide for binding to bone, as represented by DBM. Plotting the absorbance observed across the concentration range for each peptide sequence yielded a binding curve of the peptides to its target substrate from which can be determined an EC50. The goal of the screenings and selections was to identify one or more peptides that bind to the selected substrate with binding specificity, with an EC50 of less than or equal to about 10 μM, and for some embodiments, in the nanomolar range (<1 μM).
As a specific example, DBM was placed in a microtiter plate at a concentration of 3 mg equivalents per well, and then the wells were blocked with buffer containing 1% BSA for 1 hour at room temperature. The buffer containing 1% BSA was then aspirated from each well, and added to the wells were the serial dilutions of biotinylated peptide. The microtiter plates were incubated for 1 hour at room temperature on a plate shaker. The DBM was then allowed to settle, and the buffer was then aspirated from the wells. The DBM was washed three times with buffer-T, and then streptavidin-alkaline phosphatase was added. The microtiter plates were incubated for 1 hour at room temperature on a plate shaker. The DBM was then allowed to settle, and the buffer was then aspirated from the wells. The DBM was washed three times with buffer-T, pNPP (p-nitrophenyl phosphate) was used to develop the assay, and the absorbance was recorded at 405 nm. An estimate of the relative affinity (binding specificity, EC50) of a peptide for bone can be made by determining the concentration of peptide that gives one-half the maximal signal in the assay.
Example 1 illustrates methods to determine the relative binding strengths of peptide to bone. […] A biotin molecule was linked to the C-terminal lysine. Also shown in Table 3 are the relative binding strengths expressed as EC50 (μM) to bone as represented by DBM of human origin. It is noted that the EC50 values were the same or substantially similar when DBM of rabbit origin was used.
Relative binding strength embodiments of the compositions to bone, also used as a measure of binding specificity, were determined by testing serial dilutions of the composition for binding to bone, as described in Example 1 Section B. Plotting the absorbance observed across the concentration range for each composition yielded a binding curve and rough dissociation constant of the composition for bone. Similar to a peptide having binding specificity for bone from which the composition is made, one property of the composition embodiments is that they bind to bone with binding specificity as measured by an EC50 of less than or equal to about 10 μM, and for some embodiments, in the nanomolar range (<1 μM). Using the methods outlined in Example 1B herein, assayed were the relative binding strengths of […] illustrative composition embodiments which include the amino acid sequences shown in SEQ ID NOs: 137, 138, 139, 140, 141 & 142, see Table 7, and synthesized to include a C-terminal amino linker which was biotinylated to facilitate determination of the relative binding strengths to bone. Shown in Table 8 are the relative binding strengths of composition embodiments to bone, as represented by DBM, expressed as EC50 (in μM).

[7] = biological target: demineralized cortical bone (DCB); assay: Biotinylated peptide binding to demineralized cortical bone
Description: (§2) Relative binding strengths of the peptides to bone, also used as a measure of binding specificity, were determined by testing serial dilutions of the peptide for binding to bone, as represented by DBM. Plotting the absorbance observed across the concentration range for each peptide sequence yielded a binding curve of the peptides to its target substrate from which can be determined an EC50. The goal of the screenings and selections was to identify one or more peptides that bind to the selected substrate with binding specificity, with an EC50 of less than or equal to about 10 μM, and for some embodiments, in the nanomolar range (<1 μM). […] As a specific example, DBM was placed in a microtiter plate at a concentration of 3 mg equivalents per well, and then the wells were blocked with buffer containing 1% BSA for 1 hour at room temperature. The buffer containing 1% BSA was then aspirated from each well, and added to the wells were the serial dilutions of biotinylated peptide. The microtiter plates were incubated for 1 hour at room temperature on a plate shaker. The DBM was then allowed to settle, and the buffer was then aspirated from the wells. The DBM was washed three times with buffer-T, and then streptavidin-alkaline phosphatase was added. The microtiter plates were incubated for 1 hour at room temperature on a plate shaker. The DBM was then allowed to settle, and the buffer was then aspirated from the wells. The DBM was washed three times with buffer-T, pNPP (p-nitrophenyl phosphate) was used to develop the assay, and the absorbance was recorded at 405 nm. An estimate of the relative affinity (binding specificity, EC50) of a peptide for bone can be made by determining the concentration of peptide that gives one-half the maximal signal in the assay. Using the methodology illustrated in Example 1, the peptides illustrated in Table 3 were also tested for relative binding strength to demineralized cortical bone, and to cancellous bone, additional evidence of binding specificity for bone.

[8] = biological target: cancellous bone (CNB); assay: Biotinylated peptide binding to cancellous bone
Description: as §2

[9] = biological target: T5, BMP5 (Homo sapiens, UniProt P22003); assay: ELISA-format binding to BMP family members; details: ELISA-format assay
T5 sequence (P22003 317-454): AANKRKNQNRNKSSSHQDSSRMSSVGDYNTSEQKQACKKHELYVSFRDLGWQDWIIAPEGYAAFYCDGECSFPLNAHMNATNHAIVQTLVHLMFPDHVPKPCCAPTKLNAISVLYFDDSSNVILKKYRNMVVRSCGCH
Description: as §1

[10] = phage display; cited from earlier work
[11] = biological target: human growth hormone (Homo sapiens, UniProt P01241); details: cited from earlier work
human growth hormone, sequence (P01241 27-217): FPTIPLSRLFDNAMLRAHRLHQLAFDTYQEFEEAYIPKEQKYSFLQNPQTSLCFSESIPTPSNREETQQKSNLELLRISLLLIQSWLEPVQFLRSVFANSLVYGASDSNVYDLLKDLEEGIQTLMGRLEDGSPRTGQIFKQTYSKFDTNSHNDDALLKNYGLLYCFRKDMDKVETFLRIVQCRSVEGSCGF

[12] = system: human adipose-derived stem cells; assay: Binding to adipose-derived stem cells
Description: In another embodiment, the pharmaceutically active agent comprises a cell. Thus, a coating composition embodiment includes at least one peptide having binding specificity to bone coupled to at least one peptide having binding specificity for cells. Such coating composition may further include cells bound to the at least one peptide having binding specificity for the cells. For example, RGDX peptides wherein X is any amino acid (SEQ ID NO:119) have been described as binding stem cells, mesenchymal stem cells, and osteoblasts.

[13] = DBM of human origin, biotinylated peptide, read-out: Binding specificity for bone (e.g., DBM) EC50
[14] = demineralized bone matrix, read-out: EC50 (μM) for DBM

120 (ALPSTSSQMPQL) [compound 120]
Binding to stem cells [1]: binding to stem cells

118 (GGALGFPLKGEVVEGWA) [compound 118]
Binding specificity for BMP14 [2]: showed binding specificity
Binding specificity for BMP2 [3]: showed binding specificity
Binding specificity for BMP4 [4]: showed binding specificity
Binding specificity for BMP7 [5]: showed binding specificity

CC[C@H](C)[C@H](NC(=O)[C@H](CC(=O)O)NC(=O)[C@H](Cc1ccccc1)NC(=O)[C@@H](N)CO)C(=O)N[C@@H](CC(=O)O)C(=O)N[C@@H](Cc1c[nH]c2ccccc12)C(=O)N[C@@H](CO)C(=O)NCC(=O)N[C@@H](CCSC)C(=O)N[C@@H](CCCNC(=N)N)C(=O)N[C@@H](CO)C(=O)N[C@@H](Cc1c[nH]c2ccccc12)C(=O)N[C@@H](Cc1c[nH]c2ccccc12)C(=O)NCC(=O)N[C@@H](CO)C(=O)N[C@@H](CCCNC(=N)N)C(=O)NCC(=O)N[C@@H](CO)C(=O)N[C@@H](CO)C(=O)NCC(=O)N[C@@H](CCCCNC(=O)CCCC[C@@H]1SC[C@@H]2NC(=O)N[C@@H]21)C(=O)O [compound 44] (H-SFDIDWSGMRSWWGSRGSSGK(Biotin)-OH)
EC50 [6, 13]: < 1 µM
EC50 [6, 14]: < 1 µM
EC50 [7]: < 1 µM
EC50 [8]: < 1 µM

58 (SSWEVFSSLESGSVGAGAGSR) [compound 58]
Binding specificity for BMP14 [2]: showed binding specificity
Binding specificity for BMP2 [3]: showed binding specificity
Binding specificity for BMP4 [4]: showed binding specificity
Binding specificity for BMP7 [5]: showed binding specificity

93 (SSSVDLYFPLKGDVVSR) [compound 93]
Binding specificity for BMP14 [2]: showed binding specificity
Binding specificity for BMP2 [3]: showed binding specificity
Binding specificity for BMP4 [4]: showed binding specificity
Binding specificity for BMP7 [5]: showed binding specificity

91 (GGGAWEAFSSLSGSRV) [compound 91]
Binding specificity for BMP14 [2]: displayed binding specificity
Binding specificity for BMP2 [3]: displayed binding specificity
Binding specificity for BMP4 [4]: displayed binding specificity
Binding specificity for BMP5 [9]: displayed binding specificity
Binding specificity for BMP7 [5]: displayed binding specificity

123 (HTPHPDASIQGV) [compound 123]
Binding to paclitaxel [10]: bind to paclitaxel

CC(C)C[C@H](NC(=O)[C@H](CO)NC(=O)[C@H](CCCNC(=N)N)NC(=O)[C@H](Cc1ccccc1)NC(=O)[C@H](CC(=O)O)NC(=O)[C@H](Cc1c[nH]c2ccccc12)NC(=O)[C@@H](N)CO)C(=O)N[C@@H](CCCNC(=N)N)C(=O)N[C@@H](CC(=O)O)C(=O)N[C@@H](Cc1c[nH]c2ccccc12)C(=O)N[C@@H](Cc1c[nH]c2ccccc12)C(=O)N1CCC[C@H]1C(=O)N1CCC[C@H]1C(=O)N[C@@H](C)C(=O)N1CCC[C@H]1C(=O)N[C@@H](CO)C(=O)N[C@@H](CC(C)C)C(=O)N[C@@H](CO)C(=O)N[C@@H](CO)C(=O)N[C@@H](CCCNC(=N)N)C(=O)NCC(=O)N[C@@H](CO)C(=O)N[C@@H](CO)C(=O)NCC(=O)N[C@@H](CCCCNC(=O)CCCC[C@@H]1SC[C@@H]2NC(=O)N[C@@H]21)C(=O)O [compound 45] (H-SWDFRSLRDWWPPAPSLSSRGSSGK(Biotin)-OH)
EC50 [6, 13]: < 1 µM
EC50 [6, 14]: < 1 µM
EC50 [7]: < 1 µM
EC50 [8]: < 1 µM

124 (VMNV) [compound 124]
Binding to human growth hormone [11]: found to bind to human growth hormone

CC(C)C[C@H](NC(=O)[C@@H](N)CO)C(=O)NCC(=O)N[C@H](C(=O)N[C@@H](Cc1ccccc1)C(=O)N[C@@H](Cc1c[nH]c2ccccc12)C(=O)N[C@@H](CO)C(=O)N[C@@H](CO)C(=O)N[C@H](C(=O)N[C@@H](Cc1c[nH]c2ccccc12)C(=O)N[C@@H](CCCNC(=N)N)C(=O)NCC(=O)N[C@H](C(=O)N[C@@H](CC(=O)O)C(=O)N[C@@H](C)C(=O)NCC(=O)NCC(=O)N[C@@H](CCC(=O)O)C(=O)N[C@@H](CO)C(=O)N[C@@H](CCCNC(=N)N)C(=O)NCC(=O)N[C@@H](CO)C(=O)N[C@@H](CO)C(=O)NCC(=O)N[C@@H](CCCCNC(=O)CCCC[C@@H]1SC[C@@H]2NC(=O)N[C@@H]21)C(=O)O)C(C)C)C(C)C)[C@@H](C)O [compound 43] (H-SLGTFWSSVWRGVDAGGESRGSSGK(Biotin)-OH)
EC50 [6, 13]: < 1 µM
EC50 [6, 14]: < 1 µM
EC50 [7]: < 1 µM
EC50 [8]: ≤ 1 µM

121 (SSSCQHVSLLRPSAALGPDNCSR) [compound 121]
Binding specificity for human adipose-derived stem cells [12]: has binding specificity
